Laboratory results taken from article PMC9035363 (Cell Reports, 2022).
Where two headings read alike, the source gives them in different places.

Experiments:
Assay in all cases: SPR
[1] = molecular target: T1, SARS-CoV-2 S protein, soluble trimer (SARS-CoV-2, Wuhan reference …, UniProt P0DTC2, stabilised)
[2] = molecular target: T1, SARS-CoV-2 S protein, soluble trimer; remark: listed apart in the source
[3] = molecular target: T2, SARS-CoV-2 D614G S protein, soluble trimer (SARS-CoV-2, Wuhan sequence with D614G, UniProt A0A6H1PJZ3, D614G)
[4] = molecular target: T2, SARS-CoV-2 D614G S protein, soluble …; remark: listed apart in the source

B1: REGN10987 (imdevimab) (antibody, V domains shown)
VH: QVQLVESGGGVVQPGRSLRLSCAASGFTFSNYAMYWVRQAPGKGLEWVAVISYDGSNKYYADSVKGRFTISRDNSKNTLYLQMNSLRTEDTAVYYCASGSDYGDYLLVYWGQGTLVTVSS
VL: QSALTQPASVSGSPGQSITISCTGTSSDVGGYNYVSWYQQHPGKAPKLMIYDVSKRPSGVSNRFSGSKSGNTASLTISGLQSEDEADYYCNSLTSISTWVFGGGTKLTVL
Does B1 bind [1]?
Result: binds

B2: LY-CoV1404 (bebtelovimab), full-length human IgG1 mAb (antibody, V domains shown)
VH: QITLKESGPTLVKPTQTLTLTCTFSGFSLSISGVGVGWLRQPPGKALEWLALIYWDDDKRYSPSLKSRLTISKDTSKNQVVLKMTNIDPVDTATYYCAHHSISTIFDHWGQGTLVTVSS
VL: QSALTQPASVSGSPGQSITISCTATSSDVGDYNYVSWYQQHPGKAPKLMIFEVSDRPSGISNRFSGSKSGNTASLTISGLQAEDEADYYCSSYTTSSAVFGGGTKLTVL
Which Kd [1] does the source give for B2 here?
The Kd was 0.22 nM.

What about the Kd [2] of the same binder?
The Kd was 0.0745 nM.

And the Kd [3]?
The Kd was 0.0461 nM.

B3: LY-CoV1404 Fab (papain digestion) (Fab, V domains shown)
VH: B2 VH
VL: B2 VL
For B3, which Kd [4] is on record?
The Kd was 0.79 nM.
